Data on 1 variant can be found in IntAct's records for PubMed 18794898.

B1: Indian hedgehog protein (Mus musculus), P97812 (parent)
chain: MSPAWLRPRLRFCLFLLLLLLVPAARGCGPGRVVGSRRRPPRKLVPLAYKQFSPNVPEKTLGASGRYEGKIARSSERFKELTPNYNPDIIFKDEENTGADRLMTQRCKDRLNSLAISVMNQWPGVKLRVTEGWDEDGHHSEESLHYEGRAVDITTSDRDRNKYGLLARLAVEAGFDWVYYESKAHVHCSVKSEHSAAAKTGGCFPAGAQVRLENGERVALSAVKPGDRVLAMGEDGTPTFSDVLIFLDREPNRLRAFQVIETQDPPRRLALTPAHLLFIADNHTEPAAHFRATFASHVQPGQYVLVSGVPGLQPARVAAVSTHVALGSYAPLTRHGTLVVEDVVASCFAAVADHHLAQLAFWPLRLFPSLAWGSWTPSEGVHWYPQMLYRLGRLLLEESTFHPLGMSGAGS
partner: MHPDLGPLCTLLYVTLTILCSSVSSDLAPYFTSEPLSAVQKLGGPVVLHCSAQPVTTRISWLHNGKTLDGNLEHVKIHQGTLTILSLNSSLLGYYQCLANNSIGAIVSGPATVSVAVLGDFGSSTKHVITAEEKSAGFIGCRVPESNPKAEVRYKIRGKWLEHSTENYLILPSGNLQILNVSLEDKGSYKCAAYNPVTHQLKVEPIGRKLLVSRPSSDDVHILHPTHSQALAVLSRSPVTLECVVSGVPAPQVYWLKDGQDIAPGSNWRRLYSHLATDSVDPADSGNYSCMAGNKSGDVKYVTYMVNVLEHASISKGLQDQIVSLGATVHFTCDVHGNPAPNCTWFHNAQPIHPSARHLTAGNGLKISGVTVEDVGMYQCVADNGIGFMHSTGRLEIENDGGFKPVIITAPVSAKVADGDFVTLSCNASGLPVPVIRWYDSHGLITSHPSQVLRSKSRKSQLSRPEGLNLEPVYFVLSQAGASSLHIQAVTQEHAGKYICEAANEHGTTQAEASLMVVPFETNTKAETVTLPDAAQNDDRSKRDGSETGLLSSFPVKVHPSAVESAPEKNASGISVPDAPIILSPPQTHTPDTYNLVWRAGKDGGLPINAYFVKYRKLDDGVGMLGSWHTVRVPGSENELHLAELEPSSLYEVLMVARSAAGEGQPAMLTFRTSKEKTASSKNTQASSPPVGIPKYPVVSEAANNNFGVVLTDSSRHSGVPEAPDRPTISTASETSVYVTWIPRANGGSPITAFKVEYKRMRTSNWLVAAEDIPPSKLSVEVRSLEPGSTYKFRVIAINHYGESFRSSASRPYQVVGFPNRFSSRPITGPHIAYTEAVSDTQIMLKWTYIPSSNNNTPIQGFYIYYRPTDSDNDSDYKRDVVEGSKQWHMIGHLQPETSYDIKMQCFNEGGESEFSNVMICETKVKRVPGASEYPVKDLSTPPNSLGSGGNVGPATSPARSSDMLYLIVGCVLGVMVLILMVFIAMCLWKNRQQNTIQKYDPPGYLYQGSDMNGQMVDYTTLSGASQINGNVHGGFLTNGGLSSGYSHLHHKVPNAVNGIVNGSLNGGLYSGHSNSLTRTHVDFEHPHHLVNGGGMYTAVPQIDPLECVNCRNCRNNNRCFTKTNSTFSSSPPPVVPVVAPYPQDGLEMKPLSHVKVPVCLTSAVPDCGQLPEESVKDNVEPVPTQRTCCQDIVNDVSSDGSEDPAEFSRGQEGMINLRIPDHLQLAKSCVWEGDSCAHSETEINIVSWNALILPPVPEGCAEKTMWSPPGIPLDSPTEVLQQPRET

Variants of B1 are the subject of the assay. The following applies: with cdon_human CDON.
For the variant E131K, the “effect of a mutation on the interaction” value is “disrupting interaction”.
